Experimental data taken from patent US5726147A, “Human mutant tissue factor compositions useful as tissue factor antagonists” (priority 1995, dated 1998).
Residue numbers refer to the chain shown, from its start.

B1: Phe-140: human tissue factor mutant, Phe-140 substituted by Ala (protein, UniProt P13726 33-295, looked up, variant F140A)
Tissue factor: SGTTNTVAAYNLTWKSTNFKTILEWEPKPVNQVYTVQISTKSGDWKSKCFYTTDTECDLTDEIVKDVKQTYLARVFSYPAGNVESTGSAGEPLYENSPEFTPYLETNLGQPTIQSFEQVGTKVNVTVEDERTLVRRNNTALSLRDVFGKDLIYTLYYWKSSSSGKKTAKTNTNEFLIDVDKGENYCFSVQAVIPSRTVNRKSTDSPVECMGQEKGEFREIFYIIGAVVFVVIILVIILAISLHKCRKAGVGQSWKENSPLNVS
B2: Arg-135: human tissue factor mutant, Arg-135 substituted by Ala (protein, UniProt P13726 33-295, looked up, variant R135A)
Tissue factor: B1 Tissue factor with R135A, A140F
B3: R44: mhuTF in which arginine is substituted in place of D44 (protein, UniProt P13726 33-295, looked up, variant D44R)
Tissue factor: B1 Tissue factor with D44R, A140F

Key:
Assay type in all cases: biochemical
recombinant VIIa = test: Linked chromogenic assay with purified VIIa and factor X, apparent dissociation constant of the TF-VIIa interaction; conditions: full-length Ala mutants, linked chromogenic assay
Experimental: (§1) The lysate was prepared by treating cell pellets with 15 mM octyl-glucopyranoside for 15 minutes at 37 C. followed by a 3-fold dilution. […] Formed TF-VIIa complexes were quantified with substrate factor X added at 100 nM for a fixed time. Samples were then removed from the reaction and quenched in 100 mM EDTA in TBS (20 mM Tris-HCl 140 mM NaCl, pH 7.4). […] The rate of Spectrozyme hydrolysis, measured as the increase in absorbance (mOD/min), was determined at ambient temperature in a kinetic plate reader (Molecular Devices, Mountain View, Calif.) followed by quenching and monitoring of product factor Xa formation using the Spectrozyme FXa.
Enzfitter (Elsevier Biosoft) programs were employed to calculate the KDapp from the experimentally determined bound VIIa, and free VIIa which was obtained by subtracting bound VIIa from the initial VIIa concentration.

[1] = tested on: coagulation in recalcified plasma; test: One stage clotting (coagulation) assay of specific functional activity of full-length TF mutants in CHO cell lysates; conditions: full-length Ala mutant expressed in CHO cells, cell lysate, coagulant activity normalized to antigen, relative to wild-type TF
Experimental: The full-length TF mutants prepared above were analyzed for function by coagulation assay. […] Coagulation factor deficient plasmas were purchased from George King Bio-medical. The chromogenic substrate, Spectrozyme FXa, was from American Diagnostica Inc. (Greenwich, Conn.).
An alternative approach was to use a polyvalent antibody purified by affinity for capturing TF followed by detection with the TF8-5G9 monoclonal antibody described above.
Initiation of coagulation by wild-type and mutant TF in recalcified plasma was determined after lysis of cell pellets from 2×10^6 cells/ml for each expressed full-length mutant with 15 mM octyl-glucopyranoside in HBS for 15 minutes at 37 C. followed by a 3-fold dilution.
All data represented are based on at least three independent determinations performed in duplicate.

Factor X = test: Functional cleavage of Factor X by the TF-VIIa complex (reaction rate Vmax), D44 mutants
Experimental: as §1
Additional mhuTF mutants were prepared based on amino acid residue substitutions at amino acid residue position number D44.

Molecule	change in KDapp for the TF-VIIa interaction compared to wild-type TF (ratio KD mutant/KD wild-type) (recombinant VIIa) [fold]	loss of function (reduction in specific functional activity as % of wild-type activity) [1]	loss of function (specific functional activity, Vmax) compared to wild-type (Factor X; calculated from Vmax rates) [%]	reaction rate (Vmax) (Factor X; cleavage of Factor X) [per second]
B1	18	30-50%	–	–
B2	7.4	30-50%	–	–
B3	–	–	75	~0.5
